Patent publication US11485776B2, “Antibodies against infectious diseases” (priority 2015, dated 2022)
Entries after “also recorded” stand apart in the source; their conditions may differ.

Key:
[1] = system: ENO1 proteins on Candida spp. (C. krusei); assay type: binding
Source text: (§1) (A) The total cell lysates of 5 Candida spp. were visualized on SDS-PAGE (left). After transferred onto the NC membranes, they were probed with purified anti-CaENO1 from 7th immunized chicken (1:3,000) (middle), or with CaS1 scFv (right) as described in material and methods. Lanes 1-6 in (A) contained the total cell lysates of C. albicans, C. krusei, C. tropicalis, C. parapsilosis and C. glabrate and purified recombinant CaENO1, respectively. […] (C) Total cell lysate from FLU^R and FLU^s and C. tropicalis (lanes 1-5 represent CT6-29, CT11-52, CT6-50, CT12-54, BCRC20520, respectively) by SDS-PAGE (left) and probed with CaS1 scFv by Western blot (right). (D) The purified ENO1 proteins of C. albicans, S. pneumonia, S. aureus, mouse and human were visualized on SDS-PAGE (left). After transferred onto the NC membranes, they were probed with purified CaS1 scFv (right) as described. Lane M contained protein markers.
(§2) To detect the presence of ENO1 proteins, the purified recombinant ENO1 protein or cell lysates of five Candida spp were subjected to SDS-PAGE analysis, transferred onto nitrocellulose membranes (Amersham Biosciences, UK) and then blocked with 5% skim milk in TBST for 1 hr. The anti-CaENO1 IgY from chicken after 7th immunization (1:3,000) or purified CaS1 scFv antibody (1 μg/ml) were added and incubated for 1 hr at room temperature. After vigorous washings, horseradish peroxidase (HRP)-conjugated polyclonal donkey anti-chicken IgY antibodies (1:3,000) (Bethyl Laboratories, Montgomery, Tex., USA) were added and incubated for an additional 1 hr for detecting the bound IgY antibodies. However, goat anti-chicken light chain antibodies (1:3,000) (Bethyl Laboratories, Montgomery, Tex., USA), followed by HRP-conjugated donkey anti-goat IgG antibodies (Jackson ImmunoResearch, USA) were used for detecting the bound scFv antibodies. After washings as above, the membranes were developed with diaminobenzidine (DAB) or ECL substrate. The ImageQuant LAS4500 was used for ECL intensity detection.
(§3) This CaS1 scFv was evaluated for its binding activity to different species of Candida. Five common strains of Candida were obtained, total lysate of five species Candida were analyzed on SDS-PAGE (FIG. 6A left) and subsequent Western blot.

[2] = system: ENO1 proteins on Candida spp. (C. parapsilosis); assay type: binding
Source text: as §1, §2, §3

hENO1 = target: T1, hENO1 (Homo sapiens, UniProt P06733); experiment: Western blot on purified human ENO1 protein; assay type: binding
T1 construct: His; made in house; host or cells: E. coli BL21 (by 'in the same way')
Source text: Lane M contained protein markers.
The ImageQuant LAS4500 was used for ECL intensity detection.

[3] = target: T2, alpha-enolase on the surface of C. albicans (Candida albicans, UniProt P30575); experiment: Flow cytometry of C. albicans, FITC binding; assay type: cell-based, C. albicans SC 5314; conditions: 100 ug antibody, 10^5 cells, 2 hours at 37° C.
T2 construct: endogenous in cells; host or cells: C. albicans SC 5314 and clinical isolates CA6-17, CA7-26, CA7-3, CA10-50, CA7-30, CA10-65
Method: (§4) (A) C. albicans SC 5314 were cultured overnight and 10^5 cells were added to each tube with 2 ml YPD medium. Experiment antibodies were added to each tube (1) Anti-CaENO1 IgY (100 ug) (2) Control scFv (100 ug) (3) scFv CaS1 (100 ug) (4) PBS, and cultured 2 hours at 37° C. in an incubator. Goat anti-chicken light chain (1:1500) antibody was used as detected antibody; FITC donkey anti-goat antibody (1:1000) was used as developed antibody to detect the reaction. Propidium iodide (PI) (1 ug/ml) was used to detect cell death. (B) Quantification of flow cytometry result in the panel A (*, p<0.05;**, p<0.01). Flow cytometry is represented as mean±SD of the duplicated experiment.
(§5) Anti-CaENO1 IgY, scFv CaS1 and control scFv were contacted with C. albicans and then subjected to flow cytometry assay. Anti-CaENO1 IgY, scFv CaS1 and control scFv show 89.7+/−2.8%, 46.64+/−3.1% and 23+/−2.3% FITC fluorescence reaction (FIG. 7A), representing that the antibody can bind to alpha-enolase on the surface of C. albicans.

C. albicans = experiment: Flow cytometry of C. albicans, propidium iodide cell death; assay type: cell-based, C. albicans SC 5314; conditions: 100 ug antibody, 10^5 cells, 2 hours at 37° C.
Method: as §4, §5

T1 sequence (P06733 whole entry): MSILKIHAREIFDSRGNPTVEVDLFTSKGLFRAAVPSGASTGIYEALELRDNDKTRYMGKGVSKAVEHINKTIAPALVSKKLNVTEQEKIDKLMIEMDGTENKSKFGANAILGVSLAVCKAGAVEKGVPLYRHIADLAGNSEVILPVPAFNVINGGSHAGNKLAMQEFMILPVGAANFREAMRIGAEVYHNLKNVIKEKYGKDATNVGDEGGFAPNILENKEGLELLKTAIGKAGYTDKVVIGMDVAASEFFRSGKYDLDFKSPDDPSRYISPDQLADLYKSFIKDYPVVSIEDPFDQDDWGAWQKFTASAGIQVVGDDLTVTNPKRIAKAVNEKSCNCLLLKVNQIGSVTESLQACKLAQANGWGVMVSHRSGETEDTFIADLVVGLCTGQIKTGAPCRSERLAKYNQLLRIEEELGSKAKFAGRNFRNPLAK
T2 sequence (P30575 whole entry): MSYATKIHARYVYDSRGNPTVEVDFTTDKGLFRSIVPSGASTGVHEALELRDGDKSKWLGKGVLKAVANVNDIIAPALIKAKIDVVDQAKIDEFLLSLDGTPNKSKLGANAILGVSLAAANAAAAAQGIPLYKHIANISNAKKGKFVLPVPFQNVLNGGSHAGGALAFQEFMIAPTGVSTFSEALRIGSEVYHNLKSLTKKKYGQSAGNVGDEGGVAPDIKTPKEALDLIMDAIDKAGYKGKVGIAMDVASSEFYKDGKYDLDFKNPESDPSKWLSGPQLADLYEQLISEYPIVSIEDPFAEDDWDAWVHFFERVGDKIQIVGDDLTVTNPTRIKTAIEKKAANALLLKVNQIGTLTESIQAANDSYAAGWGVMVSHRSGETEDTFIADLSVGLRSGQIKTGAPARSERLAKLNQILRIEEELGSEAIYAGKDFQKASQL

B1: CaS1 scFv: anti-CaENO1 scFv monoclonal antibody from chicken phage library; light chain SEQ ID NO:11, heavy chain SEQ ID NO:12 (antibody, V domains shown)
VH: TVTLDESGGGLQTPRGALSLVCKASGFTFIDYGMQWVRQAPGKGLEWVAGIGSSGSSTNYGAAVKGRATISRDDGQSTVRLQLNNLRAEDTGTYYCAKSAGGYCVNGAGCNGGSIDAWGHGTEVIVSS
VL: ALTQPSSVSANLGGTVKITCSGGSGSYGWYQQKSPGSAPVTVIYSNNQRPSNIPSRFSGSPSGSTGTLTITGVQADDEAVYFCGSRDSSYVGVFGAGTTLTVL
modifications: scFv linker; amino acid sequence comprised in a heavy chain of an anti-CaENO1 scFv monoclonal antibody (CaS1); amino acid sequence comprised in a light chain of an anti-CaENO1 scFv monoclonal antibody (CaS1)
In the case of B1, the “Binding to ENO1 in total cell lysate of C. krusei (Western blot)” value [1] is reported as “cannot react”, the “Binding to ENO1 in total cell lysate of C. parapsilosis (Western blot)” value [2] is reported as “cannot react” and the “Binding to fluconazole resistance and susceptible C. parapsilosis from clinic (Western blot)” value [2] is reported as “not”. The “Binding to purified hENO1 (Western blot)” value (hENO1) was “very little; also recorded: weak cross reactivity”, the FITC fluorescence reaction [3] was 46.64+/−3.1% and the “mortality rate of C. albicans (propidium iodide)” value (C. albicans) was 37+/−0.8%.
